The DeepSol protein solubility set

Test: soluble on expression in E. coli; label from the status in PepcDB or PDB records

Sequence	soluble on expression in E. coli
GSHMSQSFGRVLTIVHSDCALLERDGNISLLSLPVAERWLRQAQLTPGEAPVCAQPLLIPLRLKVSAEEKSALEKAQSALAELGIDFQSDAQHVTIRAVPLPLRQQNLQILIPELIGYLAKQSVFEPGNIAQWIARNLMSEHAQWSMAQAITLLADVERLCPQLVKTPPGGLLQSVDLHPAIKALKDE	soluble
MLTKANPPPSKTSPLKVWAVSDGRAGIEAQVVGLAEAISRLAPCEVTVKRVGWQGNIGRLPWWLNLLPKRWLTQESGVPDSRNPDDWPDLWIAAGRATLPLSIRAKRWSGGKSFVVQIQDPRVPPHMFDLVIPPKHDRMSGDNILPITGSPHRVTPQRLAAEYEAFQDLIEPLPRPRVAVLVGGKSKAFDLSSERAAQIAHSIQIPLEQDGGSLLMTFSRRTPETARALMTARLRHLPGVVWNGEGPNPYFAFLAAADYILVTEDSTNMATEAASTGKPVFVLKMDGSSLKFRLFHEELERQGAARPYGGAFHGWTYTPVNETDRAAREVLARIGLEHHHHHH	not soluble
SVTGIGSGFSELDEYTAGFQPSDMIIIAARPSAGKTAFALALARNAAVNFNTPVLFFSLEMAEIQLALRLMCAEAYVESQLVRRGQISPEMMNKIINSMDALADAKLFIDDTPGISIMELTAKTRRMKQEHGIGMVVVDYLQLVTPVRDGRSNREQEIAQISRSLKALAKELNIPVIALAQLNRSVEQRSGDRRPQLSDL	not soluble
MAHHHHHHMDCQALAKSLEQMNHLHNVKYLEAKDLTDFNQKSAYYICHQIAEKQLSKEGGHVVIGLSGGKTPIDVYKNIALVKDIKIDTSKLIFFIIDERYKRDDHKFSNYNNIKFLFESLKINEKEQLYRPDTSKNIVECVRDYNEKIKNMVKKYTKVDIAILGMGSDFHIASLFPNIFFNIYMNNYQNSYIYDESSIKVANSNDTSDNDNLDLLKEYVYFTTTNNFDVRKRITVSLDLLGNASSKIFLLNSTDKLDLWKNMLLKSYVDVNYCLYPAVYLIDSMNTTVVTCGYTNYPQMLEDIYVSNSSLS	soluble
MKRIGLTGNIGCGKSTVAQMFRELGAYVLDADKLIHSFYRKGHPVYEEVVKTFGKGILDEEGNIDRKKLADIVFKDEEKLRKLEEITHRALYKEIEKITKNLSEDTLFILEASLLVEKGTYKNYDKLIVVYAPYEVCKERAIKRGMSEEDFERRWKKQMPIEEKVKYADYVIDNSGSIEETYKQVKKVYEELTRDPLEHHHHHH	soluble
MSLNRYSVHPEQVKRFTTEELRSHFLMDSLFTENKLTMYYSHEDRVVIGGAAPGQSELKLDAGDFLKTDFFLERREIGIINVGQPGAVRVGDDEYVLQTKDFLYIGMGNQDVSFSSLNGEKAKFYFVSACAHKSYPTQKAALSELTPDRLGDDAASNVRSLYKVIHQDGIKSCQLMMGITMLDQNNNWNTMPAHVHDRRMEAYLYLDLEKDSKVFHFMGQPDETRHLVVGNEQAVLSPAWSIHSGAGTSNYSFVWAMAGENYTFTDMDLIPMDGLKEGHHHHHH	soluble
MAASFVAVQGNADHGVKLKSGLTSAHRLQRRLSSDLRPLAAADLTGDSLPSEERRRTSSSTPDESLRQVMYLNCWAQG	soluble
MESKIPAIEKHRDAYVKIRIIESLDELALGLKLLKEGFSRNSANKVFQSWKAIISALTVINLEKMPRNEKEKEWYYKSGFLAPTTGLKGISQRLEELGYKVNSLTSVALELHRYAYNGLYKGASDYYEREEAINDIIYLSKEIMKVIKEFFKEYWDEEIEEHYNLAEKELMKLEHHHHHH	not soluble
MSLEYFDMRKMSVNLWRNAAGETREICTFPPAKRDFYWRASITSIAANGEFSLFPGMERIVTLLEGGEMFLESADRFNHTLKPLQPFSFAADLVVKAKLTAGQMSMDFNIMTRLDVCKAKVRIAERTFTTFGSRGGVVFVINGAWQLGDKLLTTDQGACWFDGRHTLRLLQPQGKLLFSEINWLAGHSEGHHHHHH	not soluble
AFEKKTANIYTYKSTSGVTSFSDIEPLDVDFSRYRFDCYACEVDSLIDWRKATLYLQPYKNDINKAALKYDIDPAFVRAVIHAESHFNPQAVSKQGAQGLMQLMPATAKELGVRNSLSAQQNIKGGVKHLARLLRKYKGDNKLASAAYNAGEGAVKRHGGIPPYKETQVYVERVGILHQRYGRFSH	not soluble
MGSDKIHHHHHHMNQAMDTKQIAPFTLALPEGEALPLVCDSPHSGTFYPADFGAVVAPERLRGGEDTHVDALWEAVPRVGGTLLAATFPRVYIDPNRMLDDIDPAQLEGPWPTPLAPGEKTRLGYGLIWSNVDAATPIYDRKLTVAEVQRRINRYYRPYHAALTEAVEGAYQRFGAVWHLNLHSMPNNAYERLKIQSPRPLADFVLGDRDGTTCEPGLVDLVERELREKGYTVARNDPYKGVQLIAQIGRPAERRNSLQIEIRRPLYMEEGTRERNEGFATLQRDLTLLTLRIAEYVRRGV	not soluble
MSKGASAPQQQSAFKQLYTELFNNEGDFSKVSSNLKKPLKCYVKESYPHFLVTDGYFFVAPYFTKEAVNEFHAKFPNVNIVDLTDKVIVINNWSLELRRVNSAEVFTSYANLEARLIVHSFKPNLQERLNPTRYPVNLFRDDEFKTTIQHFRHTALQAAINKTVKGDNLVDISKVADAAGKKGKVDAGIVKASASKGDEFSDFSFKEGNTATLKIADIFVQEKGKDALNKAADHTDGAKVKGGAKGKGKAAAKAAKGKKLSAKKGDSSAADVRKSVDKIVKYTPSKGSRKDTPQKSQAPAAGKSSAKKGGKKAVPSAPSPSGKKSALTTDKMTMAQFVKYLDWHEKKKGGKVSSGGKVLGKRSAGKASATSGKASKASKKTAAKK	soluble
MTHQDTIASEDGSDINILLNTVQNAKALVIFAHGAGANMSHEFMNETSRLLNHLGINVLRFNFPFMDKRALTGKKYPPDRMPKLLLCYETVIEYVVDKKLSHQLPLFIGGKSMGSRVAASLVADSDLLKSRLLNHISGVFCIGYPFHPAKKPEKLRLEPLVDANKPVLIVQGDRDTLGNKVEIASYRLAEHCQCVFLEDGDHSLKPRVKSGFTHQAHMQSAVEEIVTFIERVTISS	not soluble
MSDVIEQYFVKNEPYYRPVADEVKLYEAAYSVRMPMMLKGPTGCGKTRFVEYMAWKLGKPLITVACNEDMTASDLVGRFLLDAQGTRWQDGPLTTAARYGAICYLDEVVEARQDTTVVIHPLTDNRRVLPLEKKGELVGAHPDFQLVISYNPGYQSLMKDLKQSTKQRFGALDFNYPQHDIETEIVSHETGIDSAIADKLVSIAERARNLKGHGLDEGISTRMLIYAGNLIAKGVDVHAACRMALVRPITDDPDMRDALDAAVTTFFLEHHHHHH	soluble
MSSDIQQIRIGLTNNHPCSYLADRMERVAVAIDPQMQTPETYEVLMANGFRRSGDTIYKPHCDHCQSCQALRIPAPDFVPSKSQKRLLKLLSQEFHWQLKPELDEDWYTLYARYIFARHRHGSMYPPNKMEFAKFARAKWLNTQYLHLYQGEKLVAIAVTDLLPNSASAFYTFYDPDISISLGTLAVLCQLNYCQQTKKQWLYLGYQIDECPAMNYKVRFNPHQRLVNQRWRGLEHHHHHH	soluble
SMANHLVKPDNRNCKRPRELESPVPDSPQLSSLGKSDSSFSEISGLFYKDEALEKDLNDVSKEINLMLSTYAKLLSERAAVDASYIDEIDELFKEANAIENFLIQKREFLRQRFTVIANTLHR	soluble
MSIILYTANDGTAQFALQEFGGQLWLTQADMAELYQTTKQNISKHIKTILAEQELEEKATVNFQLTVQNENGRKVNRKIAHYSLPMIIAVGYRVRSARGIQFRQWATERLDEYLTKGFAIDDERLKGTGGGDYWKELLNRIRDIRSSEKALYRQVLDLYATSQDYNPKSSESQTFFAAVQNKLHYAASRQTAAELIYSRADSSKDFMGLTTFQGAIPTLNEAKIAKNYLTEDELFRLNRLVSAFFDLAEIKAQEQSPMYMRDWIAELDKFSGLYGQGTLQGAGSISRKQAEQKAEREYRAYEARILSPVEQAYLESVKALEKTAVQQIKQKKDRTK	not soluble
